Source: US10022453B2 (BAYER PHARMA AKTIENGESELLSCHAFT, priority 2013, dated 2018)

T1: human kinesin spindle protein KSP/Eg5 (Homo sapiens, UniProt P52732)
T1 construct: The motor domain of the human kinesin spindle protein KSP/Eg5; purchased tebu-bio/Cytoskeleton Inc 027EG01-XL
T1 sequence (P52732 18-359 limits assumed): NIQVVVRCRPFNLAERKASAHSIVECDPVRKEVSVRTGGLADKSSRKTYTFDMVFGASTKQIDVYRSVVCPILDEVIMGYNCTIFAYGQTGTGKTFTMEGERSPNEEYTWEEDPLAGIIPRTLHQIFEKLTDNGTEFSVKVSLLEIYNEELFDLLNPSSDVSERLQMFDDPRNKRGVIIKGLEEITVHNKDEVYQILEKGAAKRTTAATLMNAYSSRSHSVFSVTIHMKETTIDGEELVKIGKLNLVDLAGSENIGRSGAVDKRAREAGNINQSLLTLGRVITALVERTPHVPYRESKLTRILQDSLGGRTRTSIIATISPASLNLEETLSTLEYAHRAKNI


What was measured:
NCI-H292 = experiment: Cytotoxic effects, MTT assay; type: cell-based; conditions: Homo sapiens, 72 h incubation
Experimental: The cells are cultivated by a standard method, as indicated in the […] (ATCC) for the respective cell lines.
At the end of the selected incubation time, the MTT reagent is incubated with the cells for 4 h, followed by lysis of the cells overnight by addition of the detergent. […] The proliferation of cells which were not treated with test substance but were otherwise identically treated was defined as the 100% figure.

[1] = Cell permeability, flux assay using Caco-2 cells; conditions: human, Caco-2
[2] = biological target: T1, human kinesin spindle protein KSP/Eg5; experiment: Inhibition of the kinesin spindle protein KSP/Eg5 (ATPase, malachite green); type: biochemical; conditions: 10 nM KSP motor domain, 500 μM ATP, 2 h RT
In short: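 KSP/Eg5 motor domain (10 nM) preincubated 5 min at RT with 50 μg/ml taxol-stabilized bovine or porcine microtubules in 15 mM PIPES pH 6.8, 5 mM MgCl2, 10 mM DTT. IC50 = mean of three experiments.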

NCI-H292 tumour model = experiment: Anti-EGFR ADCs in the NCI-H292 tumour model on single treatment; type: in vivo, female NMRI-nude mice; conditions: 2.5 mg/kg once on day 9; day 25
Experimental: Growth Inhibition/Regression of Experimental Tumours in the Mouse
The tumour area is determined as length×width.
When after the end of the treatment all groups of the experiment are terminated at the same time, the tumours can be removed and weighed.
C-6c. Efficacy of the Anti-EGFR Antibody Drug Conjugates in the NCI-H292 Tumour Model on Single Treatment
After the treatment, the tumour growth is monitored up to day 25.

[3] = biological target: T2, recombinant human TWEAKR protein (TPP-2305) (Homo sapiens, UniProt Q9NP84); experiment: Binding affinities by Biacore analysis; conditions: monovalent
T2 construct: purchased Fitzgerald Inc 30R-AT080
Experimental: Determination of Binding Affinities by Biacore Analysis:
Binding affinities of anti-TWEAKR antibodies were examined using surface plasmon resonance analysis on a Biacore T100 instrument (GE Healthcare Biacore, Inc.). The antibodies were immobilized on a CM5 sensor chip using an indirect capture reagent, anti-human IgG(Fc). […] Anti-TWEAKR antibodies were injected at a concentration of 10 μg/ml at […] for 10 sec.
Sensorgrams were generated after in-line reference cell correction, followed by subtraction of the buffer sample. The dissociation constant (KD) was calculated based on the ratio of association (kon) and dissociation (koff) constants, obtained by fitting sensorgrams using a 1:1 first order binding model.

TWEAKR-Fc mutein W42A = biological target: T3, TWEAKR-Fc mutein W42A (Homo sapiens, UniProt Q9NP84, W42A); experiment: ELISA, effect of TWEAKR-Fc muteins on antibody binding; conditions: 62 ng/ml mutein coated, biotinylated IgG from 100 nM
T3 construct: the full-length ectodomain (amino acids 28-80); made in house
Experimental: (§1) Effect of TWEAKR-Fc Muteins on the Antibody Affinity
(§2) To this end, the full-length ectodomain (amino acids 28-80) having the individual amino acid substitutions below were expressed and purified as Fc fusion proteins: T33Q; S40R; W42A; M50A; R56P; H60K; L65Q.
(§3) Detection was carried out using streptavidin-HRP and Amplex Red.
(§4) The dose-reaction data were fitted and the IC50s were determined.

TWEAKR-Fc mutein L65Q = biological target: T4, TWEAKR-Fc mutein L65Q (Homo sapiens, UniProt Q9NP84, L65Q); experiment: as above; conditions: 62 ng/ml mutein coated, biotinylated IgG from 100 nM
T4 construct: the full-length ectodomain (amino acids 28-80); made in house
Experimental: as §1, §2, §3, §4

TWEAKR-Fc mutein M50A = biological target: T5, TWEAKR-Fc mutein M50A (Homo sapiens, UniProt Q9NP84, M50A); experiment: as above; conditions: 62 ng/ml mutein coated, biotinylated IgG from 100 nM
T5 construct: the full-length ectodomain (amino acids 28-80); made in house
Experimental: as §1, §2, §3, §4

TWEAKR-Fc mutein R56P = biological target: T6, TWEAKR-Fc mutein R56P (Homo sapiens, UniProt Q9NP84, R56P); experiment: as above; conditions: 62 ng/ml mutein coated, biotinylated IgG from 100 nM
T6 construct: the full-length ectodomain (amino acids 28-80); made in house
Experimental: as §1, §2, §3, §4

TWEAKR-Fc WT (TPP-599) = biological target: T7, TWEAKR-Fc WT (TPP-599) (Homo sapiens, UniProt Q9NP84); experiment: as above; conditions: 62 ng/ml TWEAKR-Fc coated, biotinylated IgG from 100 nM
T7 construct: hTNFRSF12 amino acids a28-80-hIgG1-Fc
Experimental: as §1, §2, §3, §4

TWEAKR-Fc mutein S40R = biological target: T8, TWEAKR-Fc mutein S40R (Homo sapiens, UniProt Q9NP84, S40R); experiment: as above; conditions: 62 ng/ml mutein coated, biotinylated IgG from 100 nM
T8 construct: the full-length ectodomain (amino acids 28-80); made in house
Experimental: as §1, §2, §3, §4

TWEAKR-Fc mutein T33Q = biological target: T9, TWEAKR-Fc mutein T33Q (Homo sapiens, UniProt Q9NP84, T33Q); experiment: as above; conditions: 62 ng/ml mutein coated, biotinylated IgG from 100 nM
T9 construct: the full-length ectodomain (amino acids 28-80); made in house
Experimental: as §1, §2, §3, §4

TWEAKR-Fc mutein H60K = biological target: T10, TWEAKR-Fc mutein H60K (Homo sapiens, UniProt Q9NP84, H60K); experiment: as above; conditions: 62 ng/ml mutein coated, biotinylated IgG from 100 nM
T10 construct: the full-length ectodomain (amino acids 28-80); made in house
Experimental: as §1, §2, §3, §4

| Molecule | T/C area (NCI-H292 tumour model) | T/C weight (NCI-H292 tumour model) | ka [3] | kd [3] | IC50 (TWEAKR-Fc mutein W42A) | IC50 (TWEAKR-Fc mutein L65Q) | IC50 (TWEAKR-Fc mutein M50A) | IC50 (TWEAKR-Fc mutein R56P) | IC50 (TWEAKR-Fc WT (TPP-599)) | IC50 (TWEAKR-Fc mutein S40R) | IC50 (TWEAKR-Fc mutein T33Q) | IC50 (TWEAKR-Fc mutein H60K) | further results |
| --- | --- | --- | --- | --- | --- | --- | --- | --- | --- | --- | --- | --- | --- |
| CC(C)(C)[C@H](c1cc(-c2cc(F)ccc2F)cn1Cc1ccccc1)N(CCCN)C(=O)CSCCC(N)C(=O)O.O=C(O)C(F)(F)F.O=C(O)C(F)(F)F (stereo partly drawn) [Example 232, S-{2-[(3-Aminopropyl){(1R)-1-[1-benzyl-4-(2,5-difluorophenyl)-1H-pyrrol-2-yl]-2,2-dimethylpropyl}amino]-2-oxoethyl}homocysteine/trifluoroacetic acid (1:2)] |  |  |  |  |  |  |  |  |  |  |  |  | IC50 (NCI-H292): 15.5 nM; Papp B→A at 2 h [1]: 4.9 ×10⁻⁶ cm/s; efflux ratio at 2 h [1]: 14; IC50 [2]: 2.2 nM |
| CC(C)(C)[C@H](c1nc(-c2cc(F)ccc2F)cn1Cc1ccccc1)N(CCCN)C(=O)CO [toxophor A, N-(3-aminopropyl)-N-{(1R)-1-[1-benzyl-4-(2,5-difluorophenyl)-1H-imidazol-2-yl]-2,2-dimethylpropyl}-2-hydroxyacetamide] | 0.87 | 0.82 |  |  |  |  |  |  |  |  |  |  |  |
| CC(C)(C)[C@H](c1nc(-c2cc(F)ccc2F)cn1Cc1ccccc1)N(CC[C@@H](N)CF)C(=O)CO [toxophor B, N-[(3R)-3-amino-4-fluorobutyl]-N-{(1R)-1-[1-benzyl-4-(2,5-difluorophenyl)-1H-imidazol-2-yl]-2,2-dimethylpropyl}-2-hydroxyacetamide] | 0.57 | 0.40 |  |  |  |  |  |  |  |  |  |  |  |
| 136.1(TPP-2194): comparative anti-TWEAKR antibody; variable domains from WO2009/020933, constant region added, "resulting in full-length IgGs" (protein, Mus Musculus) light: DIVLTQSPASLTVSLGQRATISCRASQSVSTSSYSYMQWYQQRPGQPPKLLIKYATNLDSGVPARFSGSGSGTDFTLNIHPVEEEDAATYYCQHSWEIPYTFGGGTKLEIKRADAAPTVSIFPPSSEQLTSGGASVVCFLNNFYPKDINVKWKIDGSERQNGVLNSWTDQDSKDSTYSMSSTLTLTKDEYERHNSYTCEATHKTSTSPIVKSFNRNEC heavy: EVKLEESGGGLVQPGGSMKLSCVASGFTFNNYWMSWVRQSPEKGLEWLAEIRLKSDNYATHYAESVKGKFTISRDDSKSRLYLQMNNLRAENTGIYYCTGGFADYFDYWGQGTTLTVSSAKTTAPSVYPLAPVCGDTTGSSVTLGCLVKGYFPEPVTLTWNSGSLSSGVHTFPAVLQSDLYTLSSSVTVTSSTWPSQSITCNVAHPASSTKVDKKIEPRGPTIKPCPPCKCPAPNLLGGPSVFIFPPKIKDVLMISLSPIVTCVVVDVSEDDPDVQISWFVNNVEVHTAQTQTHREDYNSTLRVVSALPIQHQDWMSGKEFKCKVNNKDLPAPIERTISKPKGSVRAPQVYVLPPPEEEMTKKQVTLTCMVTDFMPEDIYVEWTNNGKTELNYKNTEPVLDSDGSYFMYSKLRVEKKNWVERNSYSCSVVHEGLHNHHTTKSFSRTPG |  |  | 3.84e+07 M⁻¹ s⁻¹ | 0.0324 s⁻¹ | > 50 nM | 0.001 to 0.15 nM | 0.001 to 0.15 nM | > 50 nM | 0.001 to 0.15 nM | 0.001 to 0.15 nM | 0.001 to 0.15 nM | 0.001 to 0.15 nM |  |
| P3G5(TPP-2195): comparative anti-TWEAKR antibody; variable domains from WO2009/140177, constant region added, "resulting in full-length IgGs" (protein, Mus Musculus) light: DIVLTQSPASLAVSLGQRATISCRANKSVSTSSYSYMHWYQQKPGQPPKLLIKYASNLESGVPARFSGSGSGTDFILNIHPVEEEDAATYYCQHSRELPFTFGSGTKLEIKRADAAPTVSIFPPSSEQLTSGGASVVCFLNNFYPKDINVKWKIDGSERQNGVLNSWTDQDSKDSTYSMSSTLTLTKDEYERHNSYTCEATHKTSTSPIVKSFNRNEC heavy: QVQLQQSGPEVVRPGVSVKISCKGSGYTFTDYGIHWVKQSHAKSLEWIGVISTYNGYTNYNQKFKGKATMTVDKSSSTAYMELARLTSEDSAIYYCARAYYGNLYYAMDYWGQGTSVTVSSAKTTAPSVYPLAPVCGDTTGSSVTLGCLVKGYFPEPVTLTWNSGSLSSGVHTFPAVLQSDLYTLSSSVTVTSSTWPSQSITCNVAHPASSTKVDKKIEPRGPTIKPCPPCKCPAPNLLGGPSVFIFPPKIKDVLMISLSPIVTCVVVDVSEDDPDVQISWFVNNVEVHTAQTQTHREDYNSTLRVVSALPIQHQDWMSGKEFKCKVNNKDLPAPIERTISKPKGSVRAPQVYVLPPPEEEMTKKQVTLTCMVTDFMPEDIYVEWTNNGKTELNYKNTEPVLDSDGSYFMYSKLRVEKKNWVERNSYSCSVVHEGLHNHHTTKSFSRTPG |  |  | 2.31e+06 M⁻¹ s⁻¹ | 0.00122 s⁻¹ | > 50 nM | 0.001 to 0.15 nM | 0.001 to 0.15 nM | 0.001 to 0.15 nM | 0.001 to 0.15 nM | 0.001 to 0.15 nM | 0.001 to 0.15 nM | 0.001 to 0.15 nM |  |
| P2D3(TPP-2196): comparative anti-TWEAKR antibody; variable domains from the patent literature, constant region added, "resulting in full-length IgGs" (protein, Mus Musculus) light: DIVLTQSPASLAVSLGQRATISCRASKSVSTSSYSYMHWYQQKPGQPPKLLIKYTSNLESGVPARFSGSGSGTDFILNIHPVEEEDAATYYCQHSRELPWTFGGGTKLEIKRADAAPTVSIFPPSSEQLTSGGASVVCFLNNFYPKDINVKWKIDGSERQNGVLNSWTDQDSKDSTYSMSSTLTLTKDEYERHNSYTCEATHKTSTSPIVKSFNRNEC heavy: QVSLKESGPGILQPSQTLSLTCSFSGFSLSTSGMGVSWIRQPSGKGLEWLAHIYWDDDKRYNPSLKSRLTISKDTSRNQVFLKITSVDTADTATYYCARRGPDYYGYYPMDYWGQGTSVTVSAKTTAPSVYPLAPVCGDTTGSSVTLGCLVKGYFPEPVTLTWNSGSLSSGVHTFPAVLQSDLYTLSSSVTVTSSTWPSQSITCNVAHPASSTKVDKKIEPRGPTIKPCPPCKCPAPNLLGGPSVFIFPPKIKDVLMISLSPIVTCVVVDVSEDDPDVQISWFVNNVEVHTAQTQTHREDYNSTLRVVSALPIQHQDWMSGKEFKCKVNNKDLPAPIERTISKPKGSVRAPQVYVLPPPEEEMTKKQVTLTCMVTDFMPEDIYVEWTNNGKTELNYKNTEPVLDSDGSYFMYSKLRVEKKNWVERNSYSCSVVHEGLHNHHTTKSFSRTPG |  |  | 1.32e+06 M⁻¹ s⁻¹ | 0.000564 s⁻¹ |  |  |  |  |  |  |  |  | Kd ([3]; read-out: KD (n M )): 0.4 nM |
